Laboratory results taken from patent US20230398218A1, “RAS NEOANTIGENS AND USES THEREOF” (priority 2020, published 2023).

B1: … (peptide)
peptide: CLTSTVQLIM
B2: … (peptide)
peptide: LTSTVQLIM
B3: … (peptide)
peptide: SLLNYLREM
B4: … (peptide)
peptide: MQLMPFGCL
B5: … (peptide)
peptide: MANGSLLNYL
B6: … (peptide)
peptide: VQLIMQLMPF
B7: … (peptide)
peptide: MQLMPFGCLL
B8: … (peptide)
peptide: QLIMQLMPF
B9: … (peptide)
peptide: IMQLMPFGCL
B10: … (peptide)
peptide: YMANGSLLN
B11: … (peptide)
peptide: LIMQLMPFG
B12: … (peptide)
peptide: STVQLIMQL
B13: … (peptide)
peptide: IMQLMPFGC
B14: … (peptide)
peptide: QLIMQLMPFG

These binders were tested against HLA-A01.01 (human) (assay: pMHC-I complex dissociation at 37 C, radiolabeled b2m). Details: remark: other sources report otherwise.

Binder | Stability (half-life (hr.))
B1 | 0 min
B2 | 6.22 min

The binders below were run against HLA-B07.02 (human) in the same assay as above. Details: remark: other sources report otherwise.

Binder | Stability (half-life (hr.))
B3 | 0 h
B4 | 0 h
B5 | 0 h

Each binder was assayed against HLA-A24.02 (human) in the same assay as above. Details: remark: other sources report otherwise.

Binder | Stability (half-life (hr.))
B6 | 0 min
B7 | 0 min
B8 | 22.1 min
B9 | 0 min

What follows are binders tested against HLA-A02.01 (human) in the same assay as above. Details: remark: other sources report otherwise.

Binder | Stability (half-life (hr.))
B3 | 183 min
B4 | 22.1 min
B10 | 0 min
B1 | 0 min
B11 | 0 min
B6 | 0 min
B7 | 22.9 min
B12 | 0 min
B13 | 22.2 min
B14 | 0 min
B8 | 20.4 min
B5 | 0 min
B9 | 30.9 min

The binders below were run against HLA-A01.01 (human) (assay: competition with radiolabeled reference peptide on prepared MHC class I). Details: remark: other sources report otherwise.

Binder | Affinity
B1 | 8.28 µM
B2 | 2.89 µM

What follows are binders tested against HLA-B07.02 (human) in the same assay as above. Details: remark: other sources report otherwise.

Binder | Affinity
B3 | 866 nM
B4 | 1590 nM

These binders were tested against HLA-A24.02 (human) in the same assay as above. Details: remark: other sources report otherwise.

Binder | Affinity
B6 | 4.1 µM
B7 | 18.9 µM
B9 | 14.1 µM

The binders below were run against HLA-A02.01 (human) in the same assay as above. Details: remark: other sources report otherwise.

Binder | Affinity
B3 | 67.7 nM
B4 | 116 nM
B10 | 4000 nM
B1 | 537 nM
B11 | 3340 nM
B6 | 4940 nM
B7 | 16.3 nM
B12 | 7260 nM
B13 | 1210 nM
B14 | 5210 nM
B8 | 193 nM
B5 | 1010 nM
B9 | 653 nM
